Source: patent US20180186885A1 (University of California, published 2018)

What was measured:
mouse Fzd7 P188L = biological target: T1, mouse Fzd7 P188L (mouse, UniProt Q61090 33-572); experiment: reactivity of Fab with mouse Fzd7 point mutants (FIG. 4C-D)
T1 construct: also called MEF-Fzd7P188L

[1] = biological target: FZD7 protein on human cancer cells (OVCAR-4, MDA-MB-231, primary tumour tissue) (human, UniProt O75084 33-574); experiment: cell-based or functional assay

| Binder | binding result (mouse Fzd7 P188L) | fold decrease in TOP-Flash Wnt reporter (luciferase) activity in MDA-MB-231 cells treated with Wnt3a (0-5 nM), FZD7-Fab-1791 at 200 nM [1] [fold] |
| --- | --- | --- |
| FZD7-Fab-1291 (Fab, The entries as printed end in tag-like residues) light: DVVMSQSPSSLAVSVGEKVTMSCKSSQSLLYSSNQKNYLAWYQQKPGQSPKLLIYWASTRESGVPDRFTGSGSGTDFTLTISSVKAKDLAVYYCQQYYSYPTFGGGTKLEIKRADAAPTVSIFPPSSEQLTSGGASVVCFLNNFYPKDINVKWKIDGSERQNGVLNSWTDQDSKDSTYSMSSTLTLTKDEYERHNSYTCEATHKTSTSPIVKSFNRNESYPYDVPDYAS heavy: EVQLVESGGGLVKPGGSLKLSCAASGFTFSSYAMSWVRQTPEKRLEWVATISDGGSYTRYPDKLKGRFTISRDNAKNNLYLQMSHLKSEDTAMYYCARVGGRRDYFDYWGQGTTLTVSSAKTTPPSVYPLAPGSAAQTNSMVTLGCLVKGYFPEPVTVTWNSGSLSSGVHTFPAVLQSDLYTLSSSVTVPSSTWPSETVTCNVAHPASSTKVDKKIVPRDCHHHHHHH | binds |  |
| FZD7-Fab-1791 (Fab) light: DIVMTQSPKSMSMSVGERVTLRCKASENVLNYVSWYQQKPEQSPKLLIYGASNRYTGVPDRFTGSGSATDFTLTISSVQAEDLADYHCGQSYRYPTFGAGTKLELKRADAAPTVSIFPPSSEQLTSGGASVVCFLNNFYPKDINVKWKIDGSERQNGVLNSWTDQDSKDSTYSMSSTLTLTKDEYERHNSYTCEATHKTSTSPIVKSFNRNESYPYDVPDYAS heavy: EVQPVESGGGLVQPKGSLKLSCAASGFTFNTYAMHWVRQAPGKGLEWVARIRSKSNNYAKNYDDSVKDRFTISRDDSQSMLYLQMNNLKTEDTAMYYCVRENYGGRFDYWGQGTTLTVSSAKTTPPSVYPLAPGSAAQTNSMVTLGCLVKGYFPEPVTVTWNSGSLSSGVHTFPAVLQSDLYTLSSSVTVPSSTWPSETVTCNVAHPASSTKVDKKIVPRDSHHHHHHH | binds | ~3 |
